For three proteins, Km results are on record in publication PMC6932780, “Comprehensive analysis of putative dihydroflavonol 4-reductase gene family in tea plant” (PLoS ONE, 2019).

Residue numbers refer to the chain shown, from its start. Numbers in names are those of the source.

Test in all cases: purified protein
Holding throughout (format): biochemical, Camellia sinensis
Details in all cases: 0.24 mM NADPH, citrate-phosphate buffer pH 7.2, 25°C

Substrate in data set [1]: O=C1c2c(O)cc(O)cc2O[C@H](c2cc(O)c(O)c(O)c2)[C@H]1O
Substrate in data set [2]: O=C1c2c(O)cc(O)cc2O[C@H](c2ccc(O)cc2)[C@H]1O
Substrate in data set [3]: O=C1c2c(O)cc(O)cc2O[C@H](c2ccc(O)c(O)c2)[C@H]1O

B1: CsDFRa (Camellia sinensis) (protein)
chain: MKDSVASATASAPGTVCVTGAAGFIGSWLVMRLLERGYIVRATVRDPANLKKVKHLLDLPKADTNLTLWKADLNEEGSFDEAIEGCSGVFHVATPMDFESKDPENEVIKPTINGVLSIIRSCTKAKTVKRLVFTSSAGTVNVQEHQQPVFDENNWSDLDFINKKKMTGWMYFVSKTLAEKAAWEAAKENNIDFISIIPTLVVGPFIMPTFPPSLITALSPITRNEGHYSIIKQGQFVHLDDLCESHIFLYERPQAEGRYICSSHDATIHDLAKLMREKWPEYNVPTEFKGIDKDLPVVSFSSKKLIGMGFEFKYSLEDMFRGAIDTCREKGLLPHSFAENPVNGNKV
notes: full-length ORF in pET-32a, E. coli Rosetta (DE3), Ni Sepharose purified, vector tag removal not mentioned
Turning to B1, the Km (commonly the concentration of substrate that gives half-maximal velocity) in data set [1] is 43.0 µM; in data set [2] it was 539.8 µM; in data set [3], 8.0 µM.

B2: CsDFRa (Camellia sinensis; N141A) (protein)
chain: B1 chain with N141A
notes: as for B1
In the case of B2, the Michaelis constant (Km) is 90.6 µM in data set [1], 398.1 µM in data set [2] and 88.5 µM in data set [3].

B3: CsDFRa (Camellia sinensis; N141D) (protein)
chain: B1 chain with N141D
notes: as for B1
Take B3: the figures for the Michaelis-Menten constant (Km) in data set [1] and in data set [3] were 37.2 µM and 252.0 µM, respectively.
